“Also recorded” adds a separate entry of the source.
What was measured:
[1] = Penetration of Oregon green labeled fetuin A into wounds in the porcine burn model; type: in vivo, pigs; settings: 4 hours post treatment
Description: The potential use of the protein as a topical application was explored by labeling the protein with FluoroReporter Oregon Green® 488 Protein (Molecular Probes) then applying it as 1) a hydrophobic cream 2) a hydrophilic cream and an aqueous solution. These were applied to a porcine burn model and skin samples were collected 4 hours after application. Penetration of the protein into the wound was observed by epifluorescent microscopy.
Lyophilised bovine Fetuin A (Sigma) was dissolved in purified water at a concentration of 10 mg/mL. Aliquots of 200 μl were labelled using a FluoroReporter Oregon Green® 488 Protein Labelling Kit (Molecular Probes) after the manufacturer's instructions. The resulting solution was dried down using a Labconco Centrivap concentrator and weighed. Sufficient carriers (paraffin cream (Orion, Australia), aqueous cream (Orion, Australia) or purified water) were added to produce a final concentration of 2 mg/ml of solution or 2 mg/g fetuin cream. Sufficient unlabelled fetuin A was added to the solution and cream to bring the total fetuin A concentration up to 40 mg/ml or gram.
All animal experiments were approved by the University of Queensland animal ethics committee. Six 20 kg pigs (approximately 9 weeks post partum) were scalded under general anaesthesia. Water (400 mls) was placed in a 500 ml Schott bottle whose base had been removed with a diamond saw and replaced by cling wrap held in place by autoclave tape. The water was heated in a microwave oven to 92° C. (temperature was measured with a Dick Smith Q1437 digital thermometer) then the bottle was placed on the clipped side of the animal for 15 seconds. A single 8.5 cm diameter wound was placed on each side of the animal. Each animal received a different treatment these being:
1. Treatment of intact skin with an aqueous solution of 2 mls of Oregon green labeled bovine fetuin (40 mg/ml in sterile phosphate buffered saline pH 7.4).
2. Treatment of intact skin with an aqueous gel of 2 g of Oregon green labeled bovine fetuin (40 mg/g in Solosite™ wound gel).
3. […]

[2] = Penetration of fluorescently labeled fetuin into lamb burn wounds from different carriers; type: in vivo, Merino lambs; settings: 2 mg/mL, lamb scald wounds, 24 hours
Description: Lyophilized bovine Fetuin (Sigma) was dissolved in purified water at a concentration of 10 mg/mL. Aliquots of 200 μL were labeled using a FluoReporter Oregon Green® 488 Protein Labeling Kit (Molecular Probes). Assuming 85% recovery from the kit, the solution was dried down using a vacuum concentrator (Labconco) and added at 2 mg/mL to one of 3 different carriers: paraffin cream, aqueous cream (Orion, Australia) or dissolved in purified water to make an aqueous solution.
Two Merino lambs were scalded under general anesthesia as described previously. Eight wounds were created on each animal; 2× control wounds with nothing added, 2× aqueous solution treated wounds, 2× aqueous cream treated wounds and 2× paraffin cream treated wounds. The wounds were dressed with Melolin and Sleek and the lambs awoken and returned to the pens. 24 hours later the lambs were euthanized and the burn wounds (as well as an unburned area) were collected and fixed in formalin for paraffin embedding. Sections of (4 μm) were taken and examined under a Nikon EP epifluorescent microscope to determine the extent of fetuin penetration in each of the carriers. Brightfield transmittance and Fluorescent green images were captured with a Spot RT slider cooled CCD camera and overlayed with using Photoshop software.

## Fetuin: bovine fetuin A (Sigma); glycoprotein also called alpha2-Heremans-Schmid-glycoprotein (AHSG)
[1]; debrided wound, aqueous solution
  penetration into the wound bed: significant penetration into the wound bed
[1]; debrided wound, water based gel
  penetration into the wound bed: significant penetration into the wound bed
[1]; direct injection into the wound
  penetration into the wound bed: significant penetration into the wound bed
[2]; aqueous solution
  penetration of labeled fetuin into burn tissue: good penetration; also recorded: on the epidermis and at the end of hair follicles
[2]; oil based paraffin cream
  penetration of labeled fetuin into burn tissue: little or no penetration
[2]; water based (aqueous) cream
  penetration of labeled fetuin into burn tissue: good penetration; also recorded: penetration to the base of the hair follicles
